Experimental data published in publication PMC8210318.

Assays:
RPA heterotrimer [1] = target: T1, RPA heterotrimer (UniProt P27694+P15927+P35244); assay: fluorescence anisotropy; settings: EMSA: 10 mM Tris pH 7.5, 50 ug/ml BSA, 5% glycerol, 25 mM DTT, 37 C 10 min, 25 nM DNA, 5% TBE gel, anisotropy: same buffer, 30 C
RPA heterotrimer [2] = target: T1, RPA heterotrimer; assay: EMSA; settings: 25 nM DNA, EMSA: 10 mM Tris pH 7.5, 50 ug/ml BSA, 5% glycerol, 25 mM DTT, 37 C 10 min, 5% TBE gel

T1 sequence (P27694 whole entry, chain 1 of 3): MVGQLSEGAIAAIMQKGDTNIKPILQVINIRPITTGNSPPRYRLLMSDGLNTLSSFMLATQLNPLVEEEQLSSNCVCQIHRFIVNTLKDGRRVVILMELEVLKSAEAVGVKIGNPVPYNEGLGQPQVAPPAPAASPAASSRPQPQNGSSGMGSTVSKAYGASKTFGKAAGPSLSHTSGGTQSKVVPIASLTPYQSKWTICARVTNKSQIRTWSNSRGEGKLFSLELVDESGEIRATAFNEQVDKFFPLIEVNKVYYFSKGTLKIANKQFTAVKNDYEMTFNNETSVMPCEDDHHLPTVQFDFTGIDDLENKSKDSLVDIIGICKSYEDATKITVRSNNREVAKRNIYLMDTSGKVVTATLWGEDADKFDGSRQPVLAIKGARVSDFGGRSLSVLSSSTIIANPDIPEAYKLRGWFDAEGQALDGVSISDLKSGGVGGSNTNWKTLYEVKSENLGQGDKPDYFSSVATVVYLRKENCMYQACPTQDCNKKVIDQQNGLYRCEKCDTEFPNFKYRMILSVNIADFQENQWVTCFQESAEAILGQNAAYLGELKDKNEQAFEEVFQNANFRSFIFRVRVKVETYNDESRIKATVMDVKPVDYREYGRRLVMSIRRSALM
T1 sequence (P15927 whole entry, chain 2 of 3): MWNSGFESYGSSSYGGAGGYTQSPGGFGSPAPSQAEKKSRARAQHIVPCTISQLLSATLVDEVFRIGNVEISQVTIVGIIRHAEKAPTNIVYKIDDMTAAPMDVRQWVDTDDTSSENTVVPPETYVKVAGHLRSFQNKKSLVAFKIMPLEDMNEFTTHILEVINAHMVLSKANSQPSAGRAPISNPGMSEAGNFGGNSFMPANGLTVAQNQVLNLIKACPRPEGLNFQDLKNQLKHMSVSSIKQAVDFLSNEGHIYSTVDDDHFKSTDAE
T1 sequence (P35244 whole entry, chain 3 of 3): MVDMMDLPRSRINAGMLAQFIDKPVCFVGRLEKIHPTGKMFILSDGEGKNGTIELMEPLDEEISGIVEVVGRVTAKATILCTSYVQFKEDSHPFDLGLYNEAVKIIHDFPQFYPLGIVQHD

Sequence	Kd (RPA heterotrimer [1]; with 500 nM BSA as control)	Kd (RPA heterotrimer [1]; with 500 nM N-HelQ, which displaces RPA)	binding signal (RPA heterotrimer [2]; 12.5 nM RPA, anisotropy: same buffer, 30 C)	binding signal (% of bound DNA released) (RPA heterotrimer [2]; N-HelQ titrated (up to 500 nM), anisotropy: same buffer …)
GTCGGATCCTCTAGACAGCATCCATGATCACTGGCACTGGTAGAATTCGGC / CAACGTCATAGACGATTACATTGCTACATGGATGCTGTCTAGAGGATCCGA [fork-2 fluorescein]	45.2 nM	237 nM	–	–
GTCGGATCCTCTAGACAGCATCCATGATCACTGGCACTGGTAGAATTCGGC / CAACGTCATAGACGATTACATTGCTACATGGATGCTGTCTAGAGGATCCGA [fork-2]	–	–	100 % bound	40
